Assay results reported in the nanobody polyreactivity screen of Harvey et al. (2022).

Assay: yeast display, Sf9 membrane polyspecificity reagent, FACS + sequencing; frameworks hold sequencing errors
How it was run: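 Genes from sorted yeast were amplified by colony PCR, read by MiSeq 2 × 250 sequencing and filtered on CDR length. These cells carried a synthetic nanobody library in Saccharomyces cerevisiae BJ5465 and were sorted by FACS into low and high (top ~1%) gates on anti-HA and streptavidin fluorescence. Polyreactivity is labelled according to the gate of origin.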

Sequence | polyreactivity (PSR sort gate)
QVQLVESGGGLVQAGGSLRLSCAASGYTFWDYTMGWYRQAPGKEREFVAAINWSGGSTYYADSVKGRFTISRDNAKKTVYLQMNSLKPEDTAVYYCAARRGGRRGYDYWGQGTQVTVSS | high polyreactivity
QVQLVESGGGLVQAGGSLRLSCAASGYTFWDYTMGWYRQAPGKERELVAAISSSGSSTYYADSVKGRFTISRDNAKNTVYLQMNSLKPEDTAVYYCAAYSRRQWKYDYWGQGTQVTVSS | high polyreactivity
QVQLVESGGGLVQAGGSLRLSCAASGYTFYANAMGWYRQAPGKEREFVASINYSGGSTYYADSVKGRFTISRDNAKNTVYLQINSLKPEDTSVYYCAARTGTLDDWDYAYDYWGQGTQVTVSS | low polyreactivity
QVQLVESGGGLVQAGGSLRLSCAASGYTFYAYAMGWYRQAPGKERELVATISSGGRTYYADSVKGLFTISRDNAKNTVYLQMNSLKPEDTAVYYCAARKTRYISRFDYWGQGTQVTVSS | high polyreactivity
QVQLVESGGGLVQAGGSLRLSCAASGYTFYFYAMGWYRQAPGKEREFVAAIRSSGGRTYYADSVKGRFTISRDNAKNTVYLQMNSLKPEDTAVYYCAAAGYYYSVDGAGPRYDYWGQGTQVTVSS | low polyreactivity
QVQLVESGGGLVQAGGSLRLSCAASGYTFYIYVMGWYRQAPGKERELVAAISSGDSTNYADSVKGRFTISRDNAKNTVYLQMNSLKPEDTAVYYCNAVHRSIARGGGMDYWGQGTQVTVSS | low polyreactivity
QVQLVESGGGLVQAGGSLRLSCAASGYTFYKNTMGWYRQAPGKERELVARISRSGGSTYYADSVKGRFTISRDNAKNTVYLQMNSLKPEDTAVYYCAVRQGYRSGIYEYDYWGQGTQVTVSS | high polyreactivity
QVQLVESGGGLVQAGGSLRLSCAASGYTFYPYDIGWYRQAPGKERELVAAISWSGGGTYYADSVKGRFTISRDNAKNTVYLQMNSLKPEDTAVYYCAADLKALNQSYPGYEYWGQGTQVTVSS | low polyreactivity
QVQLVESGGGLVQAGGSLRLSCAASGYTFYQYAMGWYRQAPGKESELVADISRSGVSTYYADSVKGRFTISRDNAKNTVYLQMNSLKPEDTAVYYCAARRPFYRQLDYWGQGTQVTVSS | high polyreactivity
QVQLVESGGGLVQAGGSLRLSCAASGYTFYVYAMGWYRQAPGTERELVADISTSDGSTYYADSVKGRFTISRDNAKNTVYLQMNSLKPEDTAVYYCNTDGSHGLYDWFWPANNDYWGQGTQVTVSS | low polyreactivity
QVQLVESGGGLVQAGGSLRLSCAASGYTFYYNTMGWYRQAPGKERELVARINSAGRTNYADSVKGRFTISRDNAKNTVYLQMNSLKPKDTAVYYCAADGPANPDELKVNDFDYWGQGTQVTVSS | high polyreactivity
QVQLVESGGGLVQAGGSLRLSCAASGYTFYYSMGWYRQAPGKERELVAAISAGGGRTYYADSVKGRFTISRDNAKNTVYLQMNSLKPEDTAVYYCNRVYRLTAYGYDYWGQGTQVTVSS | high polyreactivity
QVQLVESGGGLVQAGGSLRLSCAASGYTILSYGMGWYRQAPGKERELVADISSGDRTNYADSVKGRFTISRDNAKNTVYLQMNSLKPEDTAVYYCNADRASSSVGYSDDFGHDSWGQGTQVTVSS | low polyreactivity
QVQLVESGGGLVQAGGSLRLSCAASGYTIYIYAMGWYRQAPGKEREFVATISRSGGSTSYADSVKGRFTISRDNAKNTVYLQMNSLKPEDTSVYYCAAEWGYYAVGAQYYYWGQGTQVTVSS | high polyreactivity
QVQLVESGGGLVQAGGSLRLSCAASGYTLFRNAMGSYRQAPGKERELGAAISRSGARTYYADSVKGRFTISRDNAKNTVYLQMNSLKPEDTAVYYCAAVIKWTKDDYWGQGTQVTVSS | high polyreactivity
QVQLVESGGGLVQAGGSLRLSCAASGYTLGTYAMGWYRQAPGKERELVAAITWSGGRTNYADSVKGRFTISRDNAKNTVYLQMNSLKPEDTAVYYCAARYYFPFRRFRRMDYWGQGTQVTVSS | high polyreactivity
QVQLVESGGGLVQAGGSLRLSCAASGYTLKWYTMGWYRQAPGKERELVATIRRGGGTYYADSVKGRFTISRDNAKNTVYLQMNSLKPEDTAVYYCNARDRRRTNLLDYWGQGTQVTVSS | low polyreactivity
QVQLVESGGGLVQAGGSLRLSCAASGYTLSLNAMGWYRQAPGKEREFVARISGRGGSTYYADSVKGRFTISRDNAKNTVYLQMNSLKPEDTAVYYCAATWWPWGTDNRGMYYWGQGTQVTVSS | high polyreactivity
QVQLVESGGGLVQAGGSLRLSCAASGYTRFYAMGWYRQAPGTERELVAAISSSGGTTYYADSVKGRFTISRDNAKNTVYLQMNSLKPEDTAVYYCAKYVSYSRTLYDYWGQGTQVTVSS | low polyreactivity
QVQLVESGGGLVQAGGSLRLSCAASGYTSAKNGMGWYRQAPGKEREFVAGISRSGSSTYYADSVKGRFTISRDNAKNTVYLQMNSLKPEDTAVYFCAADWSVFTYFYGYDYWGQGTQVTVSS | low polyreactivity
QVQLVESGGGLVQAGGSLRLSCAASGYTSYTYTMGWYRQAPGKERELVAAISRRSDTTYADSVKGRFTISRDNAKNTVYLQMNSLKPEDTAVYYCAAVRVSYRSLSKSYYWGQGTQVTVSS | high polyreactivity
QVQLVESGGGLVQAGGSLRLSCAASGYTVGNNAMGWYRQAPGKERELVARIRTNGGTTYYADSVKGRFTISRDNAKNTVYLQMNSLKPEDTAVYYCNAYRGYEYDYWGQGTQVTVSS | low polyreactivity

Sequence | polyreactivity (PSR sort gate)
QVQLVESGGGLVQAGGSLRLSCAASGYTVTSNAMGWYRQAPGKERELVAAITNVGSTNYADSVKGRFTISRDNAKNTVYLQMNSLKPEDTAVYYCAADWDAVYLQTADYDYWGQGSQVTVSS | low polyreactivity
QVQLVESGGGLVQAGGSLRLSCAASGYTYWQYAMGWYRQAPGKERELVATITSRGGSTYYADSVKGRFTISRDNAKNTVYLQMNSLIPEDTAVYYCNARRRYSTRRSDYWGQGTQVTVSS | high polyreactivity
QVQLVESGGGLVQAGGSLRLSCAASGYTYYRYAMGWYRQAPGKERELVAAISSSGGTYYADSVKGRFTISRDNAKNTVYLQMNSLKPEDTAVYYSAAEGYYLYNAGLWGYDYWGQGTQVTVSS | low polyreactivity
QVQLVESGGGLVQAGGSLRLSCAASGYVMGWYRQAPGKERELVAAITRGTSTYYADSVKGRFTISRDNAKNTVYLQMNSLKPEDTAVYYCAARTPGVSVYKDGYWGQGTQVTVSS | low polyreactivity
QVQLVESGGGLVQAGGSLRLSCAASRFIFYSNAMGWYRTAPGKERELVASITGDGGTTYYADSVKGRFTISRDNAKNNVYLQMNSLKPEDTAVYYCAKDYIYRGYYTDFRYEDYDYWGQGTQVTVSS | low polyreactivity
QVQLVESGGGLVQAGGSLRLSCAASRFTFRRNAMGWYRQAPGKERELVAAITYNGGTTYYADSVKGRFTISRDNAKNTVYLQMNSLKPEDTAVYYCNAPYGRQGYDYWGQGTQVTVSS | low polyreactivity
QVQLVESGGGLVQAGGSLRLSCAASRFTFTAYAMGWYRQAPGKERELVAAITGTGGSTKYADSVKGRFTISRDNAKNSVDLQMYSLKPEDTAVYYCAAIRFTLRRMDYWGHGTQVTVSS | high polyreactivity
QVQLVESGGGLVQAGGSLRLSCAASRFYTMGWYRQAPGKERELVAAISWSGGDTYYADSVKGRFTISRDNAKNTVYLQMNSLKPEDTAVYYCAKKTIGSYVHEPYYYWGQGTQVTVSS | low polyreactivity
QVQLVESGGGLVQAGGSLRLSCAASRFYTMGWYRQAPGKERELVAAISWSGGDTYYADSVKGRFTISRDNAKNTVYLQMNSLKPVDTAVYYRAKKTIGSYVHEPYYYWGQGTQVTVSS | low polyreactivity
QVQLVESGGGLVQAGGSLRLSCAASRLIFYTYAMGWYRQAPGKETELVAAISFSGGSTYYADSVTGRFTISRDNAKNTVYLLMTSLKPEDTAVYYCAARGYYGYYYWGQGTQVTVSS | high polyreactivity
QVQLVESGGGLVQAGGSLRLSCAASRLTFQQYAMGWYRQAPGKERELVAAITSDGASTNYADSVKGRFTISRDNAKNTVYLQMNSLKPEDTAVYYCAARRRSRQYRYDYWGQGTQVTVSS | high polyreactivity
QVQLVESGGGLVQAGGSLRLSCAASRLTFRYYAMGWYRQAPGKERELVASISSSSGSTYYADSVKGRFTISRDNAKNTVYFQMNSLKPEDTAVYYCNARGWTLGADFGYWGQGTQVTVSS | low polyreactivity
QVQLVESGGGLVQAGGSLRLSCAASRRIFDHNAMGWYRQAPGKERELVAAISSSGGRTYYADSVKGRFTISRDNAKNTVYLQMNSLKPEDTAVYYCNKVRTVTTYEYWGQGTQVTVSS | high polyreactivity
QVQLVESGGGLVQAGGSLRLSCAASRRIFLWYAMGWYRQAPGKERELVASITRSGVTTYYADSVKGRFTISRDKAKNTVYLQMNSLKPEDTAVYYCNKDFRGDAIKLDVNYWGQGTQVTVSS | low polyreactivity
QVQLVESGGGLVQAGGSLRLSCAASRRTFGYYAMGWYRKAPGKEREMVAAIRSTGSTNYADSVKGRFTISRDNAKNSVYLQMNCLKPEDTAVYYCNAKRRFRYDYWGLGTQVTVSS | low polyreactivity
QVQLVESGGGLVQAGGSLRLSCAASRRTFKSSAMGWYRPEPGKERELVAAISRSGGITYYADSVKGRFTISRDNAKNTVYLQMNSLKPEDTAVYYCAAVGYQYRHRRFYYWGQGTQVTVSS | high polyreactivity
QVQLVESGGGLVQAGGSLRLSCAASRSIFRYYTMGWYRQAPGKETELVASISRGGSTNYADSVKGRFTISRDNAKNTVYLQMNSLKPEDTAVYDCAAGWTTRYFGGVDYWGQGTQVTVSS | high polyreactivity
QVQLVESGGGLVQAGGSLRLSCAASRSIFTWYAMGWYIQEPGKERELVAAITRGGSTYADSVKWRFTISRDNAKYTVYLLMNSLKPEDTAVYDCNAFYGVYDFNYWGQGTHVTVSS | low polyreactivity
QVQLVESGGGLVQAGGSLRLSCAASRSIFVPYAMGWYRQAPGKERELVAVITSGGSTYYADSVKGRFTISRDNAKNTVYLQMNSLKPEDTAVYYCNADLYYVWSTLSQFDYWGQGTQVTVSS | low polyreactivity
QVQLVESGGGLVQAGGSLRLSCAASRSIFYDYVMGWYRQAPGKEREFVAAISWGGDSTYYADSVKGRFTISRDNAKNTVYLQMISLKPEDTAVYYCNADYPWSVVGYDYWGQGTQVTVSS | low polyreactivity
QVQLVESGGGLVQAGGSLRLSCAASRSIFYFYAMGWYRHAPWKERELVAAINSGGTTNYADSVKGRFTISRDNAKNTVYSQMNSLKPEDTAVYYCAARLLIRYYYWGQGTLVTVSS | high polyreactivity
